From patent US20100196361A1, “Method of inhibition of vascular development using an antibody” (DYAX CORP., priority 2003, published 2010)

Legend:
Tie1 = Tie1 (Homo sapiens, UniProt P35590); experiment: Competition with E3 for binding to Tie1
[1] = biological target: T1, human Tie1-Fc fusion protein (Homo sapiens, UniProt P35590); experiment: BIAcore 3000 affinity analysis of Fab and IgG; assay type: binding
T1 construct: selected against the Tie1 extracellular domain fused to human Fc or to a histidine purification tag
T1 sequence (P35590 22-759 limits assumed): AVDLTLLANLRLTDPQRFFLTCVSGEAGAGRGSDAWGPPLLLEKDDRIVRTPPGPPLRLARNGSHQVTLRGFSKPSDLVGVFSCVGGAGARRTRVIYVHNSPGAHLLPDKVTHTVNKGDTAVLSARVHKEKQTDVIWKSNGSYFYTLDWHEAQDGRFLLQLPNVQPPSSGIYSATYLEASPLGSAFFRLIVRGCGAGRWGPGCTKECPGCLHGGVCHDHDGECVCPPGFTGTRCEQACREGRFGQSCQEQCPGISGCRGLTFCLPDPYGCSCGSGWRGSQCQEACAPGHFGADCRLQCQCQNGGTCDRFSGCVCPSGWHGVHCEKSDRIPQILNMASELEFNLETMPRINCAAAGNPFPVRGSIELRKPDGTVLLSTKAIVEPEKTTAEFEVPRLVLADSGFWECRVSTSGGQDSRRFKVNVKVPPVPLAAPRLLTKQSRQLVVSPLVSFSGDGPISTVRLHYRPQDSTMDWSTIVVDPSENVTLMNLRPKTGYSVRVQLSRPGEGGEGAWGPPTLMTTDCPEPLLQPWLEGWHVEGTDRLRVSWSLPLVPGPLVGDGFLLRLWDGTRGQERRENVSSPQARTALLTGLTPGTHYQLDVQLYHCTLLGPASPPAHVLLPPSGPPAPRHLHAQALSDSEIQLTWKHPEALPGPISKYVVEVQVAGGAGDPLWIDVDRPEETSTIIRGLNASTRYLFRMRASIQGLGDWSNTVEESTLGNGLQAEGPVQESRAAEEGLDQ
Experimental: Affinity analysis of the Fab and IgGs was performed using surface plasmon resonance using a BIAcore 3000 instrument. For this analysis both dimeric (Tie1-Fc fusion protein) and monomeric (Tie1-HIS) versions of the extracellular domain of the Tie1 were used. The sensor chips used in these experiments were CM5 (dextran-coated) which allow immobilization of proteins to the chip via standard amine coupling chemistries. The concentration of flowed antibody was determined using a surface plasmon resonance based method. Using a high-density protein A sensor chip, under mass transport limited conditions, the response signal is dependent only on the concentration of the antibody in the sample under test. This approach allows a precise determination of the antibody concentration, a parameter important for accurate determination of the KD.
470 RUs of Tie1 HIS protein were coated on a CM5 sensor chip and 5, 20, 100, and 500 nM of the Fab flowed over the chip at four different flow rates ([…]), rates in which the system is not mass transport limited. Kinetic data was typically determined using a range of analyte concentrations and three different chip coating densities. The data from the lowest coating density that gave a good signal was typically chosen, this was often in a range from 50-100 RUs. Using such low coating densities allowed the sensor curves to be fit using BIAEVALUATION™ 3.0 software to a 1:1 model, often even when using a bivalent analyte (IgG or Tie1-Fc fusion protein). For bivalent analytes, when fit to a 1:1 model was not possible, the curves were fit using a 2:1 model.
The anti-Tie1 antibodies described here bind to both human and mouse Tie1 molecules. The binding of the anti-Tie1 Fab to mouse Tie1-Fc fusion protein was compared with the binding of the anti-Tie1 Fab to human Tie1-Fc fusion protein. In both of these experiments the Tie1-Fc fusion protein was immobilized on the sensor chip and the anti Tie-1 Fab served as the analyte. Under these experimental conditions the anti-Tie1 Fab has very similar KD (˜3 nM) values for both the human and mouse Tie1-Fc fusion proteins (Table 9). Under conditions that are likely to mimic those used in the animal efficacy experiments, i.e. Tie1-Fc immobilized to the CM5 sensor chip and anti-Tie1 used as the analyte, the measured KD was 0.2 nM.

human Tie1 Fc = biological target: T2, human Tie1 Fc (Homo sapiens, UniProt P35590); experiment: BIAcore, Fab over Tie1/Fc coated on CM5 chip; assay type: binding; conditions: Fab analyte
T2 construct: selected against the Tie1 extracellular domain fused to human Fc or to a histidine purification tag
T2 sequence (P35590 22-759 limits assumed): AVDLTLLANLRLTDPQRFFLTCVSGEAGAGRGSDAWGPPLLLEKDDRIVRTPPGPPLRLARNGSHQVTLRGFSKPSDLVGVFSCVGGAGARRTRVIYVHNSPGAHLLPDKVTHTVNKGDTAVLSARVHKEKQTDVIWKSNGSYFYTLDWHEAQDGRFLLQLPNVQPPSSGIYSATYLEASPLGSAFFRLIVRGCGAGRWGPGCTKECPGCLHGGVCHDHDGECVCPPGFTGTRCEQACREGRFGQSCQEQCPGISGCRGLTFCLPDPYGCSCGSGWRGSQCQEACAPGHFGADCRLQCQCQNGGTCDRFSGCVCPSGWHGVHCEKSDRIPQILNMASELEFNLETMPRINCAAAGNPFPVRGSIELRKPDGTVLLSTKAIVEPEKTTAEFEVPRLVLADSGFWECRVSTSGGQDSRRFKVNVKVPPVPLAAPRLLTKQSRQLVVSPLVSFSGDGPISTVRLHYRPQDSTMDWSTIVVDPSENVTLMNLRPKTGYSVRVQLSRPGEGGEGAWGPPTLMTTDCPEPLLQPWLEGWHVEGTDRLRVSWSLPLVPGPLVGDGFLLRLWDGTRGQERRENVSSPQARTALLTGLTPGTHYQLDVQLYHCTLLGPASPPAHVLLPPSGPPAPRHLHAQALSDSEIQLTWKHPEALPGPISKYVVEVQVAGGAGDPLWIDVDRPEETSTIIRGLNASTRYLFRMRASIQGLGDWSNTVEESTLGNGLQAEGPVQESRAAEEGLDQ
Excerpt: To evaluate if the binding behaviour had been affected in any way by the conversion of the somatic mutations back to germline residues, the parental and the germlined E3b antibodies were produced and tested in Biacore as Fab fragments. Here, by contrast to what was done for the IgGs (see Example 28), and in order to measure a monovalent interaction, the Fabs were run over the antigen directly coated onto the surface.
Recombinant human Tie1/Fc was coated on a CM5 chip. The surface of the chip was first activated with a 7-minute pulse of 0.05 M NHS/0.2 M EDC, then Tie1/Fc (2 μg/ml in 10 mM sodium acetate, pH 4.0) was run over the chip surface until 750 RUs were coated on the surface. All flow cells were subsequently deactivated with a 7-minute pulse of 1 M ethanolamine hydrochloride, pH 8.5. All further experiments were performed in HBS buffer.
The parental and the germlined E3b Fabs were prepared. A series of dilution (50, 25, 12.5, 6.25 and 3.125 nM) was prepared in HBS buffer. Samples were injected at 30 μl/min for 5.3 minutes using the KINJECT™ program. This was followed by a 10-minute dissociation phase, and the remaining Fab was stripped from the surface with a single 18-sec injection of 50 mM NaOH/1 M NaCl.
Sensorgrams were analyzed using the simultaneous ka/kd fitting program from the BIAEVALUATION™ software 3.1 assuming a 1:1 model.

Sequence of Tie1 (P35590 22-1138): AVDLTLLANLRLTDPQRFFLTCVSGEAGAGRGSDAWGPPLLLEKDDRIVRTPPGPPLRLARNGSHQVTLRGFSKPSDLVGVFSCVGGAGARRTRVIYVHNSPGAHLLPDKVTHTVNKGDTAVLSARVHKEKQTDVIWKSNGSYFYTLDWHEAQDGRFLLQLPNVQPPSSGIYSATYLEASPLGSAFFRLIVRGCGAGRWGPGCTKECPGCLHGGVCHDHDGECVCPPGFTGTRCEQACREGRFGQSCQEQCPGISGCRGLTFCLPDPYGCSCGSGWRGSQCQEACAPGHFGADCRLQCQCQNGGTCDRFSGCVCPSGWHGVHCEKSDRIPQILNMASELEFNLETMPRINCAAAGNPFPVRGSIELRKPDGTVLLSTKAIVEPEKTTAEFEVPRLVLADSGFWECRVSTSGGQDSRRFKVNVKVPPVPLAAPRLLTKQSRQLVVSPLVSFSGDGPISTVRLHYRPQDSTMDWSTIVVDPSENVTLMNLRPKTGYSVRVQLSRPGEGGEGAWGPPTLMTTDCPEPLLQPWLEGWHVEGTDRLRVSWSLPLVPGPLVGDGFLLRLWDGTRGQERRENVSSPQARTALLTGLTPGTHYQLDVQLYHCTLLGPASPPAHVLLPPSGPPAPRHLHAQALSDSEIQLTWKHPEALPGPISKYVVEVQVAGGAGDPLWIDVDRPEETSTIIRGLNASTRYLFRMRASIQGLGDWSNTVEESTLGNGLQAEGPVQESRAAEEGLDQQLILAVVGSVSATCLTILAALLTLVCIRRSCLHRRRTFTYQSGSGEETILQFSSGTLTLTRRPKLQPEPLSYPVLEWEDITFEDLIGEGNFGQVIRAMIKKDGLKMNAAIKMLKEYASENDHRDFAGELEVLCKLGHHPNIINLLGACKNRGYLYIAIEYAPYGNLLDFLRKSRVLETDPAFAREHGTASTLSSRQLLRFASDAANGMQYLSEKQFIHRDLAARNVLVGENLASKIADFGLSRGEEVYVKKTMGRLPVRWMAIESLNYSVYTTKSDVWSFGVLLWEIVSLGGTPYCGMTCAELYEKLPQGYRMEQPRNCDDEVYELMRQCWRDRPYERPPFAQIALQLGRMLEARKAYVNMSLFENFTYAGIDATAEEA

B1: M0055E10: Tie1-binding antibody; LC SEQ ID NO:492, HC SEQ ID NO:494 (antibody, V domains shown)
VH: EVQLLESGGGLVQPGGSLRLSCAASGFTFSAYPMFWVRQAPGKGLEWVSVISPSGGQTSYADSVKGRFTISRDNSKNTLYLQMNSLRAEDTAVYYCAKSFSGLAALDFWGQGTLVTVSS
VL: QDIQMTQSPATLSLSPGERATLSCRASQSVRTYLGWYQQKHGQAPRLLIYDASNRATGIPARFSGSGSGTDFTLTISSLEPEDFAVYYCQQRSNWPLTFGGGTKVEIK
modifications: Antibody
- competition with E3 for binding to Tie1 (Tie1): competes with E3 for binding to Tie1

B2: M0060H01: Tie1-binding antibody; LC SEQ ID NO:628, HC SEQ ID NO:630 (antibody, V domains shown)
VH: EVQLLESGGGLVQPGGSLRLSCAASGFTFSYYPMVWVRQAPGKGLEWVSVIVPSGGFTAYADSVKGRFTISRDNSKNTLYLQMNSLRAEDTAMYYCARKRPGNAFDIWGQGTMVTVSS
VL: QDIQMTQSPATLSLSPGERATLSCRASQSVSSYLAWYQQKPGQAPRLLIYDASNRATGIPARFSGSGSGTDFTLTISSLEPEDFAVYYCQQRSNWPVTFGQGTRLEIK
modifications: Antibody
- competition with E3 for binding to Tie1 (Tie1): competes with E3 for binding to Tie1

B3: M0054H10: Tie1-binding antibody; LC SEQ ID NO:448, HC SEQ ID NO:450 (antibody, V domains shown)
VH: EVQLLESGGGLVQPGGSLRLSCAASGFTFSQYPMIWVRQAPGKGLEWVSVISPSGGHTSYADSVKGRFTISRDNSKNTLYLQMNSLRAEDTAVYYCARIQYYGGAFDIWGQGKMVTVSS
VL: QDIQMTQSPATLSLSPGERATLSCRASQSVSIYLAWYQQKPGQAPRLLIYDASNRATDIPARFSGSGSGTDFTLTISSLEPEDFAVYYCQQRSSWPITFGLGTRLEIK
modifications: Antibody
- competition with E3 for binding to Tie1 (Tie1): competes with E3 for binding to Tie1

B4: M0058F03: Tie1-binding antibody; LC SEQ ID NO:604, HC SEQ ID NO:606 (antibody, V domains shown)
VH: EVQLLESGGGLVQPGGSLRLSCAASGFTFSDYGMAWVRQAPGKGLEWVSVISPSGGQTAYADSVKGRFTISRDNSKNTLYLQMNSLRAEDTAVYYCATVRWFGAFDYWGQGTLVTVSS
VL: QDIQMTQSPSTLSASVGDRVTITCRASQGISNYLAWYQQKPGKVPKLLIYGASNLQSGVSSRFSGSGSATDFTLTISSLQPEDFATYYCQQFNSYPLTFGGGTKVEIK
modifications: Antibody
- competition with E3 for binding to Tie1 (Tie1): competes with E3 for binding to Tie1

B5: E3b Fab: Fab with germlined HC and germlined LC sequence of E3 (antibody, V domains shown)
VH: EVQLLESGGGLVQPGGSLRLSCAASGFTFSMYGMVWVRQAPGKGLEWVSVISPSGGNTGYADSVKGRFTISRDNSKNTLYLQMNSLRAEDTAVYYCARAPRGYSYGYYYWGQGTLVTVSS
VL: DIQMTQSPSSLSASVGDRVTITCRASQGIGHYLAWYQQKPGKVPKLLIYTASTLQSGVPSRFSGSGSGTDFTLTISSLQPEDVATYYCQQFNSYPHTFGQGTRLEIK
- Kon [1]: 9300 M⁻¹ s⁻¹
- koff [1]: 4.41e-05 s⁻¹
- koff (human Tie1 Fc; Human Tie1 Fc coated on CM5): 0.00101 s⁻¹
- kon (human Tie1 Fc; Human Tie1 Fc coated on CM5, 750 RU): 136000 M⁻¹ s⁻¹
